Assay: label from the status in PepcDB records
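Note: failed if final PepcDB status was selected cloned or expressed and not failed if soluble or beyond.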

MAVAALLPQRPTSLEISMEGETFLWLIRHAPVDGVAGTIHAPDAPADLGDRAQLQALRQRLPRDSASYASPSRRTVETARALGLEPDLVGNFSEQDFGDWTGRRHDELAASGGEAYAQFWGDPAHARPPGGESFEDQVARVRHGLSRIGAGPATLVVHSGTIRAALCIALDLAPQSALRFVIDPLSLTRIDRLATGWRVVSVNQRVV
protein production: failed

MSGLLPLLDFAGYVALLLWGVHMVQTGVQRAFGAALSIALGRALGTRLRAFASGLGITAALQSSTATGLMITGFAAGGVVALVPALAAMLGANVGTTLIVQLLSFDLTSLAPILILAGVWMFRRAAPGRTRDLGRVFIGLGLLLLSLHQLVQLFQPFETAPLLGVLLDALASQPVAAVLLAAALTWAAHSSVAVVVLVMSLASHGMVNPALAFALVLGANLGTAINPMIEGVTGDDPAARRLPLGNLLTRVAGVLAGIILLPWLQPWLSGLAGDPAHAVANFHTLFNVVIALVFLPILTPYAALLTRWLPKRADPNDPARPQYLDEWAHDVPAVALGNAAREALRMADMLQTLLLYARAGFKRDNRHRMVQARQLDSALDKLETAITTYLATLDQENMTREDHQRLDTILAFCSNIGHAGDIAYHGLLNHIGRLRKQGLLLSADQRASLDATLGELIANQRQAAALFVTDDLRQARALAGEKARFRALEAEAAETQLQQIKSGKVDAAEVGALYLDILRDLKGINSHVVGASAYPLLARHGELLPSRLRDAGN
protein production: failed

MKTSLRLEDGTKNSLQIPIDLIIEIFLRLSVNSIARCRCVSKQWASTLSRPYFTELFLTRSLARPKLLFAYRKGSDYLFLSSPQLQNPDDDHKKSSPVVVNYHMHHILTLGSGNMSWRTIQCCIPHRSFDGGICIDGLIYYYAGVNNNDIVIVCFDVRSEEFRFIIGALHHGSLINYNGKLSLYLPSTVYSRFNGVIRSIKLWVLEDAKRQEWSEHTYILPAMHDIMKTTDLRCVGMTQTKEFVFWSIKGMRFYVFYYNIERNTIKKVEMQGMEAFKESNVYTFLDHVEDVKLMQFF
protein production: failed

MDLVKIDETLDDLQIKDIHIIQKKEGFRFGVDAVLLANYAKVKSNQTVIDLCSGTGIIPFIIQGKKSPRHITGIEIQEDMVQMANRTVLYNKFQEKIKFINEDIKNLAELKKLERVDVVTVNPPYKLRNSGIVNEFDKNAIARHEICCTLEDVIKAARTLLKDNGRLFMVHRPERLADILCLMREYKIEPKSIKMVYPSVNKAPNIVLIEGQRDGGAFLKWEKSLYIHKENGEYTEELNEIYGR
protein production: failed

MTQAASAAPQSAHSAKWKWAKRAFTAFFFIAVPVLLFMLVKNLDWQEVKKALASYKASTLAIAAVVAFASYATYCGFDILARYYTRHKLSIKQIVPVTFVCYAFNLNLSSWVGGIALRYRLYSRLGLEVSTITRILSLSLITNWLGYMLLAGFVFSMRFLELPEEWSIGTTTLQLIGFGLLAVCFSYLLACRFSKKRSWTIRDQEFNLPSMKQALMQASLGALNWALMAAVIYTLLPDKAFYPAILGVLLISSIAGVITHIPAGLGVLETVFITLLSHQFSKGSLLAALIGYRAIYFLLPLMIALVVYLVLEKRAKKMGEKNQRRMGQEANS
protein production: failed

MKLLFVSPGWPRGRLWGELGFKFPSLSLAALAAVTPESWDVALCDENIEPLDLNSDADLVAITAMTPQAPQAYRIAAAFRARGKRVVMGGFHASNLPEEALQHVDAVVVGEGEVVWPQLLADLERGELQRIYRAATALAMEAIPVARRELFQGKRYLFTNTLQTTRGCPFDCEFCSVTAFYGRRYRKRPVDNVLAELELLRRRNSFAFFVDDNLVADRTYALSLFAGMKGMGFKWLSHAPIDFAHDREFLRAAGEAGCVGMFVGFESLNQDALAAMGKVTNTARSYLEDAQAFRDNGIGILGSFVLGCDNDTPAVFEGLLRFCEEARLEAAIFPILTPYPGTEVRRRLEAEGRIISSDWQDYDMEHVTFLPRGMSVDELQQGYDWLNRSFYSLPSMYRRIFKAHRSVQVFAPMNFGFRSAIRRKGRVA
protein production: failed

MDPDNRVRQRAVKTLGKRGNPDVLEDLMEALKDSRQPVQEAASEALRKIIAASDSVPVLVKALDATDRNVRKAAIEALWKAGTPEAIPPLLRELDDADWYLRSRAADALADIASPEAALGLIKVMDIHDSPVKKIIVNALGKIGTVEAVEGLVKALEDLEHHHHHH
protein production: not failed

AEITEVRIYKSKGNGSVKAYASVSFDNEFVVKGLKVVEGEKGLWVSMPSRRMKDGSFQDVFHPVSREARDKIVDAVLKAYQEQE
protein production: failed

MEKLENFWTRDELNTFFDYVTPERDVEQFTMFRVLAYSGIRKGELLALTWKDINFEDNTLRVNKTLTQGLGGKLIVQPPKSRAGRRTIDLDDSTMRYLRQWKGVQRETFLGMGFNTNNVDQLVFASNRNHFRSMNTPTKWLNKAIKATGLKHISIHGFRHTHASLLYQSGVGLKETQQRLGHSRADSSVTLDVYTHTTEQQNVAALQRFENYVEAKLEHHHHHH
protein production: failed

MSKKETDLGRDSIGKLLFKLAMPAIIAQLVNVLYNIVDRMFIGRLQSGDMAMAGVGVAFPIIMIVAAFSGLVGMGGAPLAAIKMGEKKKEDAEEIMTNSFSALIGLALFLTVFFFIFKEPILWAFGASDATIGYALDYLGIYLIGTIFVQIALGMNSFINTQGFAKVGMITVMVGAVINIVLDPILIFGFNMGVKGAALATIIGQCASAIWVLYFLFEKQSILRIRKKFLKPKLKILFSIMALGVSPFIMQATESLVIISMNNNLLKYGGDLAVGAMTIMSSVMQIILLPLMGLSQGAQPIISYNYGANKVYRVKKAFKLLLVSSMVFTTIMWSALMMLPDVFVKIFNSNNPQLMEITSWSIKIYFAGILLFGAQVACQQTFLALGQAKISLILALLRKIVLLIPFIYVLPMVFENKLMGVLMAEPFADIIAALSTVTCFIVFYKKHLSQGLEEEIKVNS
protein production: failed

MIGHRPLLAALERGHCASYTFVMKRRNFFRFSALGLLALAGGGLYARRSSASAYYSGPISDHFDGVRFFNPGGTPPGNFMGLLKWRFNGERATWPETYPSPFPFAKPEARIDGRDMRVTFVGHASFLIQTAGLNILVDPVWSQRTSPLSFAGPKRVNPPGIRFEDLPPIDLVLVTHNHYDHLDMETLKRLHVAHKPLFITPLGNDAVIRTGVEAARIKVGDWGDVVETGSVKIHFEPCHHWSARGLNDRSMALWAAFVIETPGGKIYHIGDTGFHEGLNYGAARKKHGEFRLANLPFGAYEPRWFMKGQHQNPAEAVEGMRLCGAAHVCGHHWGTVQLTDEAVDAPLAALKAALTEQGVEESRFRPMRPGEVFDVPSA
protein production: failed

MAASSSARVAAATAPTASPTSAAPAAPHDGEDNVAADAPYRVLIVEDDRSQALFAQSVLHGAGMHAQVEMTAASVPQAIQDYHPDLILMDLHMPELDGIRLTTLIRQQPGQQLLPIVFLTGDPDPERQFEVLDSGADDFLTKPIRPRHLIAAVSNRIRRARQQALQQAGEQVSVRSNPETGLPTRGHVMDLLADALERKQSGGLFFIEIASALGLRERYGYAAYERLMTQAGHRLASAAQPYPLARLNDNSFLLLAVDMPEASLEQQALEIRQRLSANAFPVREEESVHVRCAIGVAPLGLGFDDTGSALEAVERTALQARLRSDGVQTYLAPSQAEQQEQLRLVEGQLELAYQPIVAVAGGDTAQYQVLLRLRQADGTLLSAGQVIPAAEAAGRIADLDQQVMDHALGLLHLYQHASPPLRLFVSQSPRTLARDAFADWLLKALVERGVAGQSLIVDLRLDDALIHAVTVQQFCAKLMPAGVQFCLSQFEPGDEANALLAQLPLSFVRMANRFADAHGNAAVRDELRGVIDIAHQRGLLIIGQRIEDPQAAAAMWMSGVDFIQGNLVQTVGKELDFDFTSAVL
protein production: failed

EKITILADAIPELHVEEANDKVMGSIDWEAALKQSAGKEDLAQEMLQMLVDFIPEVNEWIDKALESDISEEELCHYIHKLHGSSSYCGVPRLKQLCNLIETSLRQHQTISDIEPELFELQDEMEKVTKDANLLLSN
protein production: not failed

EWQHRGYGRELLAEAERIAREEFDAKKMLIISGVGVREYYRKFGYRKDGPYVSKRLDKRYADYKRTNRFDAELNT
protein production: failed

MNKKILTLLVLILSISSVLMLSKSITKKSKYKIIRDYFINSNYVLVKIENKDLKFTISKPIYDKKLNNYFFKGQTTSHFLISNNVDIAINTSPYEVKQNMFFPKGLYIYNKKMISKQINNYGEIVIKHNKIILNPKEDEIENCDYGFSGFFVLIKNGKYKKNFKETRHPRTIIGTDKNNKHLFLVTIEGRGVNNSKGASLNEAIDFALSYGMTNAINLDGGGSSTLVVKSNNAPYKLNFTANIFGQERPVPFHLGIKLPN
protein production: failed

MVRCVRLVEAGSVVRYLSTSICRPVVDAGSRALCLQEWADSQQVKEKQYSRDVQRAAALNIYRIPPSSRKPALCPTPRDRLEYDEDRLEHIAYVRARELHTLEVTGLETVAQSKAHVASLEGLIPEDKVVLLAGSPLQNEATLGQCGVEALTTLEVVGRRLGGNNCLSLQVNPVQPARYLWTTLHSSKQGEPNSSANHRCS
protein production: failed

MTEISYEAIAFEQSGPITRITLNRPDAANGMNDTMTRELADAARRADTSGAKVVVLTGSGRFFSAGGDLKAFSTAPSRGAFIKGVADDLHRAISSFARMDAVLITAVNGTAAGAGFSIAVTGDLVLAAESASFTMAYTKVGLSPDGSASYYLPRLVGMRRAQELMLTNRTLSATEAYEWGLVTEVVPDADLADRATKLAEQVAAGSAGSNGAVKSLLLSSLKNSLEEQMEAEGRFIAARADSADGREGVDAFLGKRRPEFA
protein production: failed

MAATTGLETLVDQIISVITNDGRNIVGVLKGFDQATNIILDESHERVFSTKEGVQQHVLGLYIIRGDNIGVIGELDEELDASLDFSKLRAHPLKPVVH
protein production: failed

MTFRGPSPPRFGHSMDLPAYAIEAEGLYKTYAGTKTSPEKRALNGIDLKIPRGSIFGLLGPNGAGKSTFINILAGLVRKSSGTVRIWGRDIDQRPRDARAAIGVVPQELAADVFFTPRESLEVQAGFYGVPKSERRTDELLNALGLGDKAGAYVRQLSGGMKRRLMVAKAMVHQPPVLILDEPTAGVDVELRRQLWQYVTSLNELGVTIVLTTHYLEEAQELCDEIAIINRGEVVACEPTAKLLSRMDSRNVVVTPESPVTAAPVLEGFDTKLRSGGAFSVSYRTGQSSVEQVLAAVRASGLHIKDIATEDPDLEDVFVALTYGDPNAADPTKDLEHHHHHH
protein production: failed

DGQTYQIGFEMRLPVSWNGRFLYQGNGGTDGNIATATGQVGSGGMLSNALKDGFAVISSDAGHSSAQNPLFGLDPQARINYGYGAITKLTPMAKDLIKTAYGKLPDRSYAGGTSNGGRHAMMAATRLGDQYDGILASTPGFHLPRAAAAQLYTAQQLRRVATDENDLSTALTYAERNVLANAILTRCDALDGVADGMVQDVEACRTAFDIHKDVPVCSGSRDGSCLSKDQIDVVANIYRGPVNSSGEALYATQPYDPGLLGSNWASWKFVSSVGTARDPVAVGIIFQVPPDPTIVQNSRKFAFNYNFDTDYPKLSATNSTYSESAMSFMIPPDELNLDKLRLHGGKMIVVQGTADGVFSVDDTQNWYDKLMAKYKSSSLGDAQSFARFYRVPGMNHSRGGLATDQFDALTALVNWVEYGQA
protein production: failed

MNDDSQDKIIHDIRIQLRKAATELSRWKLYGSSKWAAEALAGLAEAIDVDQTHSLADESPLRNKQGVPKQMFEIPQNGFGLSETEYDLYLLGSTLFDAKEFDRCVFFLKDVTNPYLKFLKLYSKFLSWDKKSQESMENILTTGKFTDEMYRANKDGDGSGNEDINQSGHQRANLKMVSNEHESQSNISSILKEINTFLESYEIKIDDDEADLGLALLYYLRGVILKQEKNISKAMSSFLKSLSCYSFNWSCWLELMDCLQKVDDALLLNNYLYQNFQFKFSENLGSQRTIEFNIMIKFFKLKVFEELNGQLEDYFEDLEFLLQVFPNFTFLKAYNATISYNNLDYVTAESRFDDIVKQDPYRLNDLETYSNILYVMQKNSKLAYLAQFVSQIDRFRPETCCIIANYYSARQEHEKSIMYFRRALTLDKKTTNAWTLMGHEFVELSNSHAAIECYRRAVDICPRDFKAWFGLGQAYALLDMHLYSLYYFQKACTLKPWDRRIWQVLGECYSKTGNKVEAIKCYKRSIKASQTVDQNTSIYYRLAQLYEELEDLQECKKFMMKCVDVEELLEGIVTDETVKARLWLAIFEIKAGNYQLAYDYAMGVSSGTSQEIEEARMLARECRRHM
protein production: failed
